# Reference: patent publication US20240425569A1 (VISTERRA, published 2024)
# T1: Singapore/2010 (serotype IV EDIII)
# T1 construct: also called ED3-DV4/Sing10; DENV-4 Sing
# T1 E protein domain III (EDIII): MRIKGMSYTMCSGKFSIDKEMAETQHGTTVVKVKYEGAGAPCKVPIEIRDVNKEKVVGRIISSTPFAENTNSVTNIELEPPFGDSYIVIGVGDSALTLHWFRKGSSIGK
# T2: Brazil/2011 (serotype IV EDIII)
# T2 E protein domain III (EDIII): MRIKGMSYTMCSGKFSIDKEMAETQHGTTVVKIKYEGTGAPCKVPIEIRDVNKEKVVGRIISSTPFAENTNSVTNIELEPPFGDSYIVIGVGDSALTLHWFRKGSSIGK
# T3: Cambodia/2008 (serotype III EDIII)
# T3 construct: Genotype II; also called ED3-DV3/Cambodia08
# T3 E protein domain III (EDIII): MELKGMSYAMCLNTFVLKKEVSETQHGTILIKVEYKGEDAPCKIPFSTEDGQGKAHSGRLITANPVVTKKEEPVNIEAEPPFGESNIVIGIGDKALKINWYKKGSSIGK
# T4: Vietnam/2007 (serotype II EDIII)
# T4 construct: Genotype Asian II; also called ED3-DV2/Viet07
# T4 E protein domain III (EDIII): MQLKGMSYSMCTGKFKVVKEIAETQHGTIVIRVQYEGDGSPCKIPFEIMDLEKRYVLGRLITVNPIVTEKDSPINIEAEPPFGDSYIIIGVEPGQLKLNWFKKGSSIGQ
# T5: Puerto Rico/1977 (serotype III EDIII)
# T5 construct: Genotype IV; also called ED3-DV3/PuertoRico77
# T5 E protein domain III (EDIII): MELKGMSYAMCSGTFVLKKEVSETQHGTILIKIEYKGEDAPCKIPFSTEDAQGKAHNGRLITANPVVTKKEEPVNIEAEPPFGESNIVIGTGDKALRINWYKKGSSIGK
# T6: New Caledonia/2009 (serotype IV EDIII)
# T6 construct: also called ED3-DV4/NewCal09; DENV-4 NC
# T6 E protein domain III (EDIII): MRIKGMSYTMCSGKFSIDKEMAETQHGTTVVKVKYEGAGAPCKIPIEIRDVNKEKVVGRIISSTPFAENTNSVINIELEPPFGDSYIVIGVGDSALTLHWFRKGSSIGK
# Tests used:
# [1] = target: T7, EDIII-DV4 (E protein domain III of dengue virus serotype DV-4) (dengue virus serotype DV-4, UniProt P09866 572-679); assay: competition ELISA; column 'EDIII-DV4'
# T7 construct: also called DENV-4
# [2] = target: T8, Mexico/1977 (BC287/97)* (serotype IV EDIII) (Dengue virus 4); assay: Kd table, method not stated; Ag DENV-4 BC2
# T8 construct: isolated EDIII protein; also called EDIII of DENV-4 Mexico/1997 (BC287/97); DENV-4 BC2
# [3] = target: T9, Singapore/2008 (serotype II EDIII); assay: Kd table, method not stated; Ag DENV-2 Sing
# T9 construct: also called ED3-DV2/Sing08; DENV-2 Sing
# [4] = target: T1, Singapore/2010 (serotype IV EDIII); assay: Kd table, method not stated; Ag DENV-4 Sing
# [5] = target: T2, Brazil/2011 (serotype IV EDIII); assay: SPR; row Brazil/2011, serotype IV, genotype I
# [6] = target: T3, Cambodia/2008 (serotype III EDIII); assay: ELISA; row Cambodia/2008, serotype III, genotype II
# [7] = target: T1, Singapore/2010 (serotype IV EDIII); assay: ELISA; row Singapore/2010, serotype IV, genotype IIb
# [8] = target: T4, Vietnam/2007 (serotype II EDIII); assay: SPR; row Vietnam/2007, serotype II, genotype Asian II
# [9] = target: T5, Puerto Rico/1977 (serotype III EDIII); assay: ELISA; row Puerto Rico/1977, serotype III, genotype IV
# [10] = target: T6, New Caledonia/2009 (serotype IV EDIII); assay: ELISA; row New Caledonia/2009, serotype IV, genotype IIb
# [11] = target: T10, Philippines/1956 (H87)* (serotype III EDIII) (Dengue virus 3); assay: SPR; row Philippines/1956 (H87)*, serotype III, genotype I
# T10 construct: isolated EDIII protein
# T10 sequence (P27915 576-671): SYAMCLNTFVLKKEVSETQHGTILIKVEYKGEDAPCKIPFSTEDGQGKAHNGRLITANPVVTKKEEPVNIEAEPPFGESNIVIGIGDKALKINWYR
# [12] = target: ED3-DV4/H241/Phil56 (EDIII of DENV-4 strain H241) (dengue virus serotype DENV-4, strain …, UniProt Q58HT7 572-679); assay: ELISA; row Philippines/1956 (H241)*, serotype IV, genotype I
binder,measurement,setting,value
"antibody D88 (antibody, V domains shown, also called mAb D88) VH: QVQLVQSGAEVKKPGASVKVSCKAGFNIKDVYMSWVRQAPEQGLEWMGRIDPENGDTKYDPKLQGRVTMTADTSTNTAYMELRSLRSDDTAVYYCARGWEGFAYWGQGTLVTVSS VL: DIVMTQSPASLAVSLGERATISCRASENVDKYGNSFMHWYQQKPGQPPKLLIYRASELQWGVPDRFSGSGSGTDFTLTISSLQAEDVAVYYCQRSNEVPWTFGQGTKLEIK",Kd,[1],6.12 nM
same,Kd,[2],7.2 nM
same,Kd,[3],< 0.1 nM
same,Kd,[4],8.4 nM
same,Kd,[5],7.9 nM
same,Kd,[6],1.32 nM
same,Kd,[7],8.43 nM
same,Kd,[8],0.014 nM
same,Kd,[9],1.36 nM
same,Kd,[10],10.8 nM
same,Kd,[11],1 nM
same,Kd,[12],113 nM
